Reference: the supplement of paper PMC9112550, “Optimization of the antimicrobial peptide Bac7 by deep mutational scanning” (BMC Biology, 2022)

System: Escherichia coli TOP10
Assay: shrunken log2 fold change of peptide-encoding DNA abundance (4.5 h post-induction vs induction); higher = less antimicrobial activity (less host growth inhibition)
Conditions: time post-induction: 4.5 h; library: site-saturation at positions 5, 18, 19, 20
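Note: peptides expressed intracellularly from a pBAD plasmid library in pooled LB shake-flask culture, induced with 0.3% L-arabinose, DNA abundance read by NGS, three biological replicates, DESeq2 with apeglm shrinkage.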

First: RRIRNRPPRLPRPRPRPWFSPRP
Second: RRIRRRPPRLPRPRPRPPRQPRP
The “shrunken log2 fold change” value of the first is lower: -0.796 for the first, 1.04 for the second.

RRIRMRPPRLPRPRPRPNKTPRP and RRIRWRPPRLPRPRPRPLVPPRP are within 0.2 log units of each other in “shrunken log2 fold change” value: -0.0156 for the first, -0.000952 for the second.

First: RRIRGRPPRLPRPRPRPALEPRP
Second: RRIRFRPPRLPRPRPRPKYGPRP
The “shrunken log2 fold change” value of the first is higher: 1.11 for the first, -0.234 for the second.

RRIRVRPPRLPRPRPRPQFDPRP and RRIRSRPPRLPRPRPRPPWIPRP are within 0.2 log units of each other in “shrunken log2 fold change” value: -0.00843 for the first, -0.0981 for the second.

Going from RRIRMRPPRLPRPRPRPSDSPRP to RRIRYRPPRLPRPRPRPNLTPRP, the “shrunken log2 fold change” value falls from 0.0495 to -0.372.

RRIRDRPPRLPRPRPRPAMNPRP and RRIRARPPRLPRPRPRPFFDPRP are within 0.2 log units of each other in “shrunken log2 fold change” value: 0.139 for the first, 0.107 for the second.

RRIRPRPPRLPRPRPRPFCKPRP and RRIRCRPPRLPRPRPRPDGFPRP are within 0.2 log units of each other in “shrunken log2 fold change” value: -0.511 for the first, -0.333 for the second.

First: RRIRHRPPRLPRPRPRPYQPPRP
Second: RRIRSRPPRLPRPRPRPVPAPRP
The “shrunken log2 fold change” value of the first is lower: -0.216 for the first, 0.122 for the second.

Compared with RRIRLRPPRLPRPRPRPSAPPRP, RRIRWRPPRLPRPRPRPWKPPRP is lower in “shrunken log2 fold change” value: 0.054 for the first, -0.732 for the second.

Going from RRIRERPPRLPRPRPRPIRWPRP to RRIRFRPPRLPRPRPRPYIMPRP, the “shrunken log2 fold change” value falls from -0.0251 to -1.09.

RRIRARPPRLPRPRPRPAVHPRP and RRIRYRPPRLPRPRPRPDQQPRP are within 0.2 log units of each other in “shrunken log2 fold change” value: 0.175 for the first, -0.0144 for the second.

First: RRIRCRPPRLPRPRPRPNCYPRP
Second: RRIRLRPPRLPRPRPRPGKWPRP
The “shrunken log2 fold change” value of the first is lower: -0.209 for the first, 0.121 for the second.

First: RRIRPRPPRLPRPRPRPSQAPRP
Second: RRIRFRPPRLPRPRPRPFPLPRP
The “shrunken log2 fold change” value of the first is higher: 0.106 for the first, -0.289 for the second.

First: RRIRCRPPRLPRPRPRPHKCPRP
Second: RRIRRRPPRLPRPRPRPYLSPRP
The “shrunken log2 fold change” value of the first is lower: -0.721 for the first, -0.288 for the second.

Going from RRIRSRPPRLPRPRPRPRMWPRP to RRIRQRPPRLPRPRPRPHNYPRP, the “shrunken log2 fold change” value falls from 0.114 to -0.437.

Compared with RRIRYRPPRLPRPRPRPNNMPRP, RRIRDRPPRLPRPRPRPMQDPRP is higher in “shrunken log2 fold change” value: -0.633 for the first, -0.0272 for the second.

Going from RRIRVRPPRLPRPRPRPENSPRP to RRIRDRPPRLPRPRPRPRLEPRP, the “shrunken log2 fold change” value rises from -0.522 to 0.387.

Going from RRIRRRPPRLPRPRPRPADGPRP to RRIRSRPPRLPRPRPRPPIFPRP, the “shrunken log2 fold change” value falls from 0.344 to -0.576.

First: RRIRMRPPRLPRPRPRPEHCPRP
Second: RRIRLRPPRLPRPRPRPYFYPRP
The “shrunken log2 fold change” value of the first is higher: 0.429 for the first, -0.942 for the second.

Compared with RRIRVRPPRLPRPRPRPKPIPRP, RRIRARPPRLPRPRPRPMCNPRP is higher in “shrunken log2 fold change” value: -0.0649 for the first, 0.186 for the second.

RRIRRRPPRLPRPRPRPEFKPRP and RRIRGRPPRLPRPRPRPKTCPRP are within 0.2 log units of each other in “shrunken log2 fold change” value: 0.0599 for the first, 0.206 for the second.

RRIRQRPPRLPRPRPRPCLWPRP and RRIRNRPPRLPRPRPRPNPDPRP are within 0.2 log units of each other in “shrunken log2 fold change” value: -0.162 for the first, -0.322 for the second.

RRIRHRPPRLPRPRPRPIAQPRP and RRIRARPPRLPRPRPRPAIVPRP are within 0.2 log units of each other in “shrunken log2 fold change” value: -0.0267 for the first, -0.123 for the second.

RRIRKRPPRLPRPRPRPSSFPRP and RRIRDRPPRLPRPRPRPDNLPRP are within 0.2 log units of each other in “shrunken log2 fold change” value: 0.0223 for the first, 0.0916 for the second.

Compared with RRIRIRPPRLPRPRPRPWSFPRP, RRIRFRPPRLPRPRPRPHFMPRP is lower in “shrunken log2 fold change” value: -0.0245 for the first, -0.538 for the second.

Going from RRIRQRPPRLPRPRPRPGQFPRP to RRIRWRPPRLPRPRPRPYYLPRP, the “shrunken log2 fold change” value falls from 0.121 to -0.843.

Going from RRIRLRPPRLPRPRPRPCWWPRP to RRIRGRPPRLPRPRPRPADVPRP, the “shrunken log2 fold change” value rises from 0.26 to 0.508.

First: RRIRVRPPRLPRPRPRPQRAPRP
Second: RRIRRRPPRLPRPRPRPELGPRP
The “shrunken log2 fold change” value of the first is lower: 0.348 for the first, 0.809 for the second.

RRIRIRPPRLPRPRPRPWEEPRP and RRIRARPPRLPRPRPRPSLPPRP are within 0.2 log units of each other in “shrunken log2 fold change” value: -0.04 for the first, 0.157 for the second.

Compared with RRIRARPPRLPRPRPRPNYNPRP, RRIRYRPPRLPRPRPRPENWPRP is higher in “shrunken log2 fold change” value: -0.556 for the first, -0.223 for the second.

First: RRIRIRPPRLPRPRPRPSHAPRP
Second: RRIRYRPPRLPRPRPRPKMSPRP
The “shrunken log2 fold change” value of the first is higher: -0.283 for the first, -0.562 for the second.

Going from RRIRGRPPRLPRPRPRPYSPPRP to RRIRTRPPRLPRPRPRPDPNPRP, the “shrunken log2 fold change” value rises from -0.528 to 0.0586.

First: RRIRMRPPRLPRPRPRPNTSPRP
Second: RRIRERPPRLPRPRPRPMNRPRP
The “shrunken log2 fold change” value of the first is higher: -0.0142 for the first, -0.401 for the second.

RRIRIRPPRLPRPRPRPDCGPRP and RRIRPRPPRLPRPRPRPSACPRP are within 0.2 log units of each other in “shrunken log2 fold change” value: 0.0585 for the first, 0.0137 for the second.

RRIRDRPPRLPRPRPRPPMCPRP and RRIRVRPPRLPRPRPRPLKPPRP are within 0.2 log units of each other in “shrunken log2 fold change” value: -0.0883 for the first, -0.0393 for the second.

Going from RRIRWRPPRLPRPRPRPTCNPRP to RRIRKRPPRLPRPRPRPPGLPRP, the “shrunken log2 fold change” value rises from 0.0836 to 0.308.

First: RRIRERPPRLPRPRPRPYYNPRP
Second: RRIRHRPPRLPRPRPRPAIAPRP
The “shrunken log2 fold change” value of the first is lower: -0.675 for the first, 0.0527 for the second.

First: RRIRSRPPRLPRPRPRPTFIPRP
Second: RRIRCRPPRLPRPRPRPFFIPRP
The “shrunken log2 fold change” value of the first is higher: -0.173 for the first, -0.484 for the second.

Compared with RRIRERPPRLPRPRPRPDDDPRP, RRIRQRPPRLPRPRPRPYIFPRP is lower in “shrunken log2 fold change” value: 0.00371 for the first, -0.547 for the second.

Compared with RRIRLRPPRLPRPRPRPHHTPRP, RRIRSRPPRLPRPRPRPVEWPRP is higher in “shrunken log2 fold change” value: -0.558 for the first, 0.31 for the second.

RRIRRRPPRLPRPRPRPNKMPRP and RRIRDRPPRLPRPRPRPQRPPRP are within 0.2 log units of each other in “shrunken log2 fold change” value: -0.0549 for the first, 0.0335 for the second.

First: RRIRKRPPRLPRPRPRPFVRPRP
Second: RRIRSRPPRLPRPRPRPIMCPRP
The “shrunken log2 fold change” value of the first is higher: 0.00981 for the first, -0.572 for the second.

First: RRIRARPPRLPRPRPRPYQNPRP
Second: RRIRMRPPRLPRPRPRPPEVPRP
The “shrunken log2 fold change” value of the first is lower: -0.559 for the first, 1.25 for the second.

Compared with RRIRQRPPRLPRPRPRPCVDPRP, RRIRDRPPRLPRPRPRPECAPRP is higher in “shrunken log2 fold change” value: 0.148 for the first, 1.58 for the second.

First: RRIRCRPPRLPRPRPRPWHYPRP
Second: RRIRHRPPRLPRPRPRPEGPPRP
The “shrunken log2 fold change” value of the first is lower: -0.51 for the first, -0.0401 for the second.

First: RRIRGRPPRLPRPRPRPQEIPRP
Second: RRIRKRPPRLPRPRPRPVMCPRP
The “shrunken log2 fold change” value of the first is higher: 0.427 for the first, 0.0989 for the second.

RRIRVRPPRLPRPRPRPWEGPRP and RRIRIRPPRLPRPRPRPIDLPRP are within 0.2 log units of each other in “shrunken log2 fold change” value: 0.0112 for the first, -0.179 for the second.

Going from RRIRERPPRLPRPRPRPNVQPRP to RRIRERPPRLPRPRPRPSSQPRP, the “shrunken log2 fold change” value rises from -0.403 to 0.123.

Going from RRIRTRPPRLPRPRPRPQSLPRP to RRIRARPPRLPRPRPRPELHPRP, the “shrunken log2 fold change” value rises from -0.0105 to 0.964.

Compared with RRIRFRPPRLPRPRPRPICFPRP, RRIRVRPPRLPRPRPRPNHWPRP is higher in “shrunken log2 fold change” value: -0.293 for the first, 0.203 for the second.

Compared with RRIRHRPPRLPRPRPRPGNFPRP, RRIRLRPPRLPRPRPRPYEFPRP is higher in “shrunken log2 fold change” value: -0.537 for the first, -0.111 for the second.

Compared with RRIRGRPPRLPRPRPRPSWLPRP, RRIRFRPPRLPRPRPRPLFPPRP is lower in “shrunken log2 fold change” value: 0.519 for the first, -0.23 for the second.

Compared with RRIRDRPPRLPRPRPRPPGAPRP, RRIRERPPRLPRPRPRPCYCPRP is lower in “shrunken log2 fold change” value: 0.564 for the first, -0.539 for the second.

Compared with RRIRGRPPRLPRPRPRPYFAPRP, RRIRNRPPRLPRPRPRPEAVPRP is lower in “shrunken log2 fold change” value: 0.357 for the first, 0.0335 for the second.

In the case of RRIRIRPPRLPRPRPRPAWMPRP, the “shrunken log2 fold change” value is reported as 0.0797.
